# According to patent US20130183378A1 (CEDARS SINAI MEDICAL CENTER, published 2013):
# B1: mouse counterpart of SEQ ID NO:1, MLLQVSHYL (SEQ ID NO:11) (peptide)
# peptide: MLLQVSHYL
# notes: Free peptide added to T2 cells at 0, 10 or 100 µM; also called mouse peptide
# B2: CD133-301 (peptide)
# peptide: SLNDPLCLV
# notes: Free peptide added to T2 cells; also called peptide 301
# B3: CD133-804 (peptide)
# peptide: FLLPALIFAV
# notes: Free peptide added to T2 cells; also called peptide 804
# B4: CD133-117 (peptide)
# peptide: LLFIILMPLV
# notes: Free peptide added to T2 cells; also called peptide 117
# B5: CD133-708 (peptide)
# peptide: GLLERVTRI
# notes: Free peptide added to T2 cells; also called peptide 708
# Target: T1, HLA-A*0201 on T2 cells (human)
# T1 construct: the class I molecule on T2 cells that the added peptide stabilises; also called HLA-A2; HLA-A2 molecules
# Assay: T2 cells incubated overnight with 0, 10 or 100 µM peptide, Brefeldin A, BB7.2 mAb staining, flow cytometry; fluorescence increased in a dose-dependent manner
# Protocol: T2 cells were incubated overnight with 0 μM, 10 μM, or 100 μM of SEQ ID NO:11. The cells were then incubated with Brefeldin A (Sigma, St. Louis, Mo.) at 10 μg/ml for 1 hour, washed, incubated at 37° C. in the presence of Brefeldin A (0.5 μg/ml), and then stained with BB7.2 mAb. Fluorescence intensity was measured by flow cytometry.
row,Binder,binding result
1,B1,binds

# Target: T1, HLA-A*0201 on T2 cells
# Assay: T2 cell HLA-A*0201 stabilisation; 100 µM peptide overnight, Brefeldin A, BB7.2 mAb staining, flow cytometry; MFI minus no-peptide control
# Protocol: The cells were then incubated with Brefeldin A (Sigma, St. Louis, Mo.) at 10 μg/ml for 1 hour, washed, incubated at 37° C. for 0, 3, or 6 hours in the presence of Brefeldin A (0.5 μg/ml), and then stained with BB7.2 mAb.
Binder,MFI (0 hour) [MFI],MFI (3 hour) [MFI],MFI (6 hour) [MFI]
B2,10.7,14.3,13.3
B3,89,67.6,34.7
B4,5.5,7.5,1.01
B5,13.1,14.8,1.3
ILSAFSVYV (Free peptide added to T2 cells) [CD133-405],79.7,69.3,44.5
